Experiment [1] addresses T1, human FcγRIIIa(F) (human, UniProt P08637 17-208, limits assumed).
T1 construct: also called hFcgRIIIa(F); hFcgRIIIa
Kind of experiment: SPR (Biacore), antibody captured on Protein L, human FcγR as analyte, pH 7.4, 25 C. For orientation: SPR reads the build-up and loss of mass on a sensor chip optically.
T1 sequence (P08637 other isoform, or with tags, fused parts or gaps limits assumed): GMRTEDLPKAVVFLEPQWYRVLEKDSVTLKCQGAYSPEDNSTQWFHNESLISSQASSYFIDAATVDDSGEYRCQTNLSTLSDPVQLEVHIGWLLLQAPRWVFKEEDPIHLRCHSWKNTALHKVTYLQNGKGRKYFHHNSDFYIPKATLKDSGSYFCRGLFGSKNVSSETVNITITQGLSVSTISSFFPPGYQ
Protocol: Binding activity between the antibodies and human FcγRIa, FcγRIIa(H), FcγRIIa(R), FcγRIIb and FcγRIIIa(F) (hereinafter referred to as human FcγRs) was evaluated using the Biacore T100 or T200 (GE Healthcare). The antibodies being tested were captured by Protein L (ACTIGEN) that was immobilized in suitable amounts on the CM4 Sensor Chip (GE Healthcare) by amine coupling. Next, the diluted human FcγRs and a running buffer used as a blank were injected to allow interaction with the antibodies captured on the sensor chip. A buffer consisting of 20 mmol/L ACES, 150 mmol/L NaCl and 0.05% (w/v) Tween 20 (pH 7.4) was used for the running buffer, and this buffer was also used to dilute the human FcγRs. 10 mmol/L glycine-HCl (pH 1.5) was used to regenerate the sensor chip. All measurements were carried out at 25° C.
Binding activity to human FcγRs can be represented by the relative binding activity to human FcγRs. Antibody was captured by Protein L, and the amount of change in a sensorgram before and after the antibody was captured was defined as X1. […]

The target in the next experiment is T2, mouse FcγRIV (mouse).
T2 construct: Bought soluble receptor; also called mFcgRIV; mFcgR IV
Kind of experiment: SPR (Biacore), antibody captured on Protein L, mouse FcγR as analyte, pH 7.4, 25 C.

The target of experiment [2] is T3, human FcγRIIb (human, UniProt P31994 43-217, limits assumed).
T3 construct: also called FcγIIB; hFcgRIIb
T3 sequence: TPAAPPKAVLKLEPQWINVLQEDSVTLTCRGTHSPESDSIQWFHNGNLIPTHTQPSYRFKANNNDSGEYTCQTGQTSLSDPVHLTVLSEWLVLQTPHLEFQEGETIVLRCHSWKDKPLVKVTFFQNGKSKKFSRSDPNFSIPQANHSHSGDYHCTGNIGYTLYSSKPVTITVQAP
Kind of experiment: SPR (Biacore), captured antibody, FcγR as analyte, 25 C.
Description: (§1) Furthermore, KD(IIaR)/KD(IIb) and KD(IIaH)/KD(IIb) in the table respectively represent the value obtained by dividing the KD value of each variant for FcγRIIaR by the KD value of each variant for FcγRIIb, and the value obtained by dividing the KD value of each variant for FcγRIIaH by the KD value of each variant for FcγRIIb.

In experiment [3] the target is T3, human FcγRIIb. Kind of experiment: SPR KD for FcγRIIb of parent IL6R-B3/IL6R-L divided by that of this variant.
Description: as §1
Experiment [4] concerns the target T3, human FcγRIIb. Nature of the experiment: ratio of this variant's SPR KD for FcγRIIaR to its KD for FcγRIIb.
Description: as §1
Experiment [5] addresses T3, human FcγRIIb. Kind of experiment: ratio of this variant's SPR KD for FcγRIIaH to its KD for FcγRIIb.
Description: as §1
In a further experiment the target is T4, human FcγRIIa type H (human, UniProt P12318 36-217).
T4 construct: also called FcγRIIaH; FcγRIIa(H)
T4 sequence: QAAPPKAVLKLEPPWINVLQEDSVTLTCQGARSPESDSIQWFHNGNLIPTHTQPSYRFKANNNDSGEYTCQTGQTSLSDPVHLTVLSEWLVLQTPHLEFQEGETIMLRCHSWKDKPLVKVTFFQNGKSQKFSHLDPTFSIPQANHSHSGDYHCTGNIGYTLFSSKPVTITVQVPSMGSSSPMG
Kind of experiment: SPR (Biacore), captured antibody, FcγR as analyte, 25 C.

The target of experiment [6] is T5, human FcRn (human).
T5 construct: also called hFcRn; soluble human FcRn complexed with β2-microglobulin
Nature of the experiment: SPR (Biacore), pH 7.0, 25 C, antibody captured by Protein L, human FcRn as analyte.
T5 sequence (chain, as listed by the source limits assumed, chain 1 of 2): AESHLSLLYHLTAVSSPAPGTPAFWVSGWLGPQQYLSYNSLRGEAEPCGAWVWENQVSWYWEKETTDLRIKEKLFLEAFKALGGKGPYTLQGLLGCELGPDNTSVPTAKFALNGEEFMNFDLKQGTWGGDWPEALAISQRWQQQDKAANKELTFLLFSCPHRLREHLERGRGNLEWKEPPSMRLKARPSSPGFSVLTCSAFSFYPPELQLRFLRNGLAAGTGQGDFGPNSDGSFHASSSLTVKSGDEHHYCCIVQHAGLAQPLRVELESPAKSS
T5 sequence (P61769 21-119 limits assumed, chain 2 of 2): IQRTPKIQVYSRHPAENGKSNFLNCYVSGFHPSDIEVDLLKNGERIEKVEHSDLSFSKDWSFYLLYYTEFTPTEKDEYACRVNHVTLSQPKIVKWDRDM
Protocol: (§2) A kinetic analysis of binding between human FcRn and the aforementioned antibodies was carried out using the Biacore T100 or T200 (GE Healthcare). The antibodies being tested were captured on the CM4 Sensor Chip (GE Healthcare) on which a suitable amount of Protein L (ACTIGEN) was suitably immobilized by amine coupling. Next, diluted human FcRn and a running buffer used as a blank were injected to allow the human FcRn to interact with the antibody captured on the sensor chip. A buffer consisting of 50 mmol/L sodium phosphate, 150 mmol/L NaCl and 0.05% (w/v) Tween 20 (pH 7.0 or pH 7.4) was used for the running buffer, and each buffer was also used to dilute the human FcRn. 10 mmol/L glycine-HCl (pH 1.5) was used to regenerate the sensor chip. All measurements of binding were carried out at 25° C. The KD(M) of each antibody to human FcRn was calculated based on kinetics parameters, i.e., the association rate constant ka (1/Ms) and the dissociation rate constant kd (1/s) calculated from a sensorgram obtained by the measurement. The Biacore T100 or T200 Evaluation Software (GE Healthcare) was used to calculate each parameter.

In experiment [7] the target is T6, human FcRn (human).
T6 construct: Soluble human FcRn complexed with beta2-microglobulin; also called hFcRn; soluble human FcRn complexed with β2-microglobulin
Nature of the experiment: SPR (Biacore), pH 7.0, 25 C; antibody captured on Protein L, human FcRn injected.
T6 sequence (chain, as listed by the source limits assumed, chain 1 of 2): as the sequence (chain, as listed by the source limits assumed, chain 1 of 2) above
T6 sequence (P61769 21-119 limits assumed, chain 2 of 2): as the sequence (P61769 21-119 limits assumed, chain 2 of 2) above
Protocol: as §2

For experiment [8], the target named is T7, FcγRIIb (human, UniProt P31994 43-217, limits assumed).
T7 construct: also called FcγIIB; FcgRIIb
T7 sequence: T3 sequence
Nature of the experiment: ratio of SPR KD values; parent polypeptide is IL6R-B3/IL6R-L.
Description: as §1

Experiment [9] addresses T8, FcγRIIa type H (human, UniProt P12318 36-217).
T8 construct: also called FcγRIIaH; FcγRIIa(H)
T8 sequence: T4 sequence
Nature of the experiment: SPR (Biacore), captured antibody, FcγR as analyte, method of Example 14.

Experiment [10] addresses T7, FcγRIIb. Nature of the experiment: ratio of SPR KD values of this variant (FcγRIIaR over FcγRIIb).
Description: as §1
The target in experiment [11] is T7, FcγRIIb. Kind of experiment: ratio of SPR KD values of this variant (FcγRIIaH over FcγRIIb).
Description: as §1
Experiment [12] has as its target T9, FcγRIIb (human, UniProt P31994 43-217, limits assumed).
T9 construct: Soluble analyte in Biacore; also called FcgRIIb; FcγIIB
T9 sequence: T3 sequence
Nature of the experiment: SPR (Biacore); ratio against the parent IL6R-B3/IL6R-L.
Protocol: (§3) Next, interaction between these antibodies and FcγR was analyzed kinetically using the Biacore T100 (GE Healthcare). The interaction was measured at a temperature of 25° C. using HBS-EP+ (GE Healthcare) for the running buffer. The Series S Sensor Chip CM5 (GE Healthcare) was used after immobilizing Protein A by amine coupling. […] Antibody captured on the chip was washed by allowing 10 mM glycine-HCl (pH 1.5) to react following measurement. The chip regenerated in this manner was used repeatedly. The dissociation constant KD (mol/L) was calculated from the association rate constant ka (L/mol/s) and dissociation rate constant kd (1/s) as calculated by global-fitting the measurement results with a 1:1 Langmuir binding model using the Biacore

For experiment [13], the target named is T10, FcγRIa (human, UniProt P12314 16-292, limits assumed).
T10 construct: Soluble analyte in Biacore; also called FcgRIa; CD64
Nature of the experiment: SPR (Biacore), antibody captured on chip, FcγR as analyte, method of Example 14.
T10 sequence (P12314 16-292 limits assumed): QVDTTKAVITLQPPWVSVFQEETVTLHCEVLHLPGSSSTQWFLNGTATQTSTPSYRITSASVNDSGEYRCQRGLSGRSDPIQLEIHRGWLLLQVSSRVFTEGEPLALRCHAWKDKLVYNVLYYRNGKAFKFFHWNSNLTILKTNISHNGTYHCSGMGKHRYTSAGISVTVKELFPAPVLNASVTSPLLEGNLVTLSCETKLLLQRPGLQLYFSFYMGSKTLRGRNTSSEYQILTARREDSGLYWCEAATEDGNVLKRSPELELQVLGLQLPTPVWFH
Protocol: as §3

The target of experiment [14] is T9, FcγRIIb. Described as above.
Protocol: as §3
The target in a further experiment is T11, FcγRIIa type R (human, UniProt P12318 36-217).
T11 construct: Soluble analyte in Biacore; also called FcγRIIaR; FcγRIIa(R)
T11 chain: T4 sequence with H133R
The description is as above.

Experiment [15] addresses T12, FcγRIIa type H (human, UniProt P12318 36-217).
T12 construct: Soluble analyte in Biacore; also called FcγRIIaH; FcγRIIa(H)
T12 sequence: T4 sequence
The experiment is described as above.
Protocol: as §3

Experiment [16] deals with T13, FcγRIa (human, UniProt P12314 16-292, limits assumed).
T13 construct: also called CD64; FcgRIa
Kind of experiment: SPR (Biacore), captured antibody, FcγR as analyte, method of Example 14.
T13 sequence (P12314 16-292 limits assumed): as above

The target in experiment [17] is T7, FcγRIIb. Described as above.
Another experiment has as its target T14, FcγRIIIa type V (human, UniProt P08637 17-208, limits assumed).
T14 construct: also called FcγRIIIaV; FcγRIIIa(V)
Described as above.

For experiment [18], the target named is T15, human FcγRIIb (human, UniProt P31994 43-217).
T15 construct: also called FcγIIB
T15 sequence: T3 sequence
Kind of experiment: SPR (Biacore); KD of parent IL6R-B3/IL6R-L for FcγRIIb divided by KD of the variant for FcγRIIb.
Description: as §1

In experiment [19] the target is T15, human FcγRIIb. Nature of the experiment: SPR (Biacore), antibody captured on the chip, FcγR as analyte.
Experiment [20] concerns the target T16, human FcγRIIa type R (allotype R131) (human, UniProt P12318 36-217).
T16 construct: also called FcγRIIaR; FcγRIIa(R)
T16 chain: T4 sequence with H133R
The experiment is described as above.

The next experiment deals with T17, human FcγRIa (human, UniProt P12314 16-292, limits assumed).
T17 construct: also called CD64
T17 sequence (P12314 16-292 limits assumed): as above
The description is as above.

In experiment [21] the target is T18, human FcγRIIa type H (allotype H131) (human, UniProt P12318 36-217).
T18 construct: also called FcγRIIaH; FcγRIIa(H)
T18 sequence: T4 sequence
The experiment is described as above.

For experiment [22], the target named is T19, human FcγRIIIa(F) (human, UniProt P08637 17-208, limits assumed).
T19 construct: also called hFcgRIIIa(F); allotype F158
Kind of experiment: SPR (Biacore), captured antibody, FcgR as analyte, HBS-EP+, 25 C; bound amount corrected for captured antibody, relative to GpH7-G1d/GpL16-k0.
Protocol: Interaction between each modified antibody and Fcγ receptor prepared in the manner described above was analyzed using the Biacore T100 (GE Healthcare), Biacore T200 (GE Healthcare), Biacore A100 or Biacore 4000. HBS-EP+ (GE Healthcare) was used for the running buffer, and measurements were carried out at 25° C. The chips used were chips in which antigen peptides, Protein A (Thermo Scientific), Protein A/G (Thermo Scientific) or Protein L (ACTIGEN or BioVision) were immobilized on the Series S Sensor Chip CM5 (GE Healthcare) or Series S Sensor Chip CM4 (GE Healthcare) by amine coupling, or chips in which preliminarily biotinylated antigen peptides were allowed to interact and then immobilized on the Series S Sensor Chip SA (certified) (GE Healthcare). The target antibodies were captured on these sensor chips, Fcγ receptor diluted with the running buffer was allowed to interact, followed by measurement of the amount of bound antibody. The amounts bound were compared between antibodies. However, since the amount of Fcγ receptor bound depends on the amount of captured antibody, the values used for comparison were first corrected by dividing the amount of Fcγ receptor bound by the captured amount of each antibody. Through reaction with 10 mM glycine-HCl at pH 1.5, the sensor chips were regenerated by washing off antibody captured on the sensor chips and used repeatedly.

The values that follow come from patent US20140105889A1 (published 2014).

Where a chain is given by its changes, count along the chain named.

T14 sequence (P08637 other isoform, or with tags, fused parts or gaps limits assumed): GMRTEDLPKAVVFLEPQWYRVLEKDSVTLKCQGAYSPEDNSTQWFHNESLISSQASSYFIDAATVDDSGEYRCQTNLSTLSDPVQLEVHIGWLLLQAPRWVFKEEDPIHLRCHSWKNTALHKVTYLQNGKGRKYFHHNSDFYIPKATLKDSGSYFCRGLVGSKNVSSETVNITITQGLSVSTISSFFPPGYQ
T2 sequence (A0A0B4J1G0 21-203): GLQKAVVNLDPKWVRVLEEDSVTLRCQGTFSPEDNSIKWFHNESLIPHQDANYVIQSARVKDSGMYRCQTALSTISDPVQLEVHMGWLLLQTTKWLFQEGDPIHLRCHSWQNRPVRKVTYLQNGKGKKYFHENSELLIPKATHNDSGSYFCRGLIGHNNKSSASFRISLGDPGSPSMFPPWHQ
Protocol for mouse FcγRIV: Binding activity between the antibodies and mouse FcγRI, FcγRII, FcγRIII and FcγRIV (R&D Systems, Sin θ Biological) (hereinafter referred to as mouse FcγRs) was evaluated using the Biacore T100 or T200 (GE Healthcare). The antibodies being tested were captured by Protein L (ACTIGEN) that was immobilized in suitable amounts on the CM4 Sensor Chip (GE Healthcare) by amine coupling. Next, the diluted mouse FcγRs and a running buffer used as a blank were injected to allow interaction with the antibody captured on the sensor chip. A buffer consisting of 20 mmol/L ACES, 150 mmol/L NaCl and 0.05% (w/v) Tween 20 (pH 7.4) was used for the running buffer, and this buffer was also used to dilute the mouse FcγRs. 10 mmol/L glycine-HCl (pH 1.5) was used to regenerate the sensor chip. All measurements were carried out at 25° C.
Binding activity to mouse FcγRs can be represented by the relative binding activity to mouse FcγRs. Antibody was captured by Protein L, and the amount of change in a sensorgram before and after the antibody was captured was defined as X1. Next, mouse FcγRs were allowed to interact with the antibody, and the value obtained by subtracting binding activity of mouse FcγRs represented as the amount of change in a sensorgram before and after allowing the running buffer to interact with antibody captured by Protein L (ΔA2) from the value obtained by multiplying by 1500 the value obtained by dividing the binding activity of mouse FcγRs represented as the amount of change in a sensorgram before and after that interaction (ΔA1) by the captured amount (X) of each antibody, was divided by the captured amount of each antibody (X) followed by multiplying by 1500 to obtain the binding activity of the mouse FcγRs (Y) (Equation 1).

B1: VH3/L(WT)-IgG1-F21 (antibody)
heavy: QVQLQESGPGLVKPSETLSLTCAVSGHSISHDHAWSWVRQPPGEGLEWIGFISYSGITNYNPSLQGRVTISRDNSKNTLYLQMNSLRAEDTAVYYCARSLARTTAMDYWGEGTLVTVSSASTKGPSVFPLAPSSKSTSGGTAALGCLVKDYFPEPVTVSWNSGALTSGVHTFPAVLQSSGLYSLSSVVTVPSSSLGTQTYICNVNHKPSNTKVDKKVEPKSCDKTHTCPPCPAPELLGGPSVFLFPPKPKDTLYISRTPEVTCVVVDVSHEDPEVKFNWYVDGVEVHNAKTKPREEQYNSTYRVVSVLTPLHQDWLNGKEYKCKVSNKALPAPIEKTISKAKGQPREPQVYTLPPSRDELTKNQVSLTCLVKGFYPSDIAVEWESNGQPENNYKTTPPVLDSDGSFFLYSKLTVDKSRWQQGNVFSCSVMHEALHYHYTQKSLSLSP
light: not shown
notes: copies: 2 + 2
With B1, the “BINDING AMOUNT (RU)” value with human FcγRIIIa(F) [1] amounted to 147 RU; in the experiment with mouse FcγRIV it was 242 RU.

B2: IL6R-BP132/IL6R-L (antibody, human IgG1)
heavy: B1 heavy with E235D, P240D, Y254M, P310V, K328A, A332K, Y436N, K441E
light: DIQMTQSPSSLSASVGDRVTITCRASQDISSYLNWYQQKPGKAPKLLIYYTSRLHSGVPSRFSGSGSGTDFTFTISSLQPEDIATYYCQQGNTLPYTFGQGTKVEIK
notes: copies: 2 + 2
As for B2, in the experiment with human FcγRIIb [2], the Kd (as a rule, the constant that tells how readily two partners part at equilibrium) turned out to be 270 nM. Moreover, in the experiment with human FcγRIIb [3], the “KD(IIb) of the parent polypeptide/KD(IIb) of the altered polypeptide” value (“KD(IIb)” below) came out at 6.4. Moreover, in the experiment with human FcγRIIb [4], the “KD (IIaR)/KD (IIb)” value was 21.5. For the same molecule, in the experiment with human FcγRIIb [5], the “KD (IIaH)/KD (IIb)” value was determined as 61.1.

B3: IL6R-BP084/IL6R-L (antibody, human IgG1)
heavy: B1 heavy with P240D, Y254M, P310V, V325M, A332K, Y436N, K441E
light: B2 light
notes: copies: 2 + 2
B3 showed a Kd with human FcγRIIa type H of 2400 nM. For the same molecule, the “KD(IIb)” value with human FcγRIIb [3] was determined as 5.1. The “KD (IIaR)/KD (IIb)” value with human FcγRIIb [4] amounted to 14.3. In addition, the “KD (IIaH)/KD (IIb)” value with human FcγRIIb [5] came to 47.6.

B4: F1113 (antibody, name in EU numbering)
heavy: B1 heavy with P310V, Y438V, S442D
light: not shown
notes: copies: 2 + 2
Turning to B4, the Kd with human FcRn [6] was 118 nM.

B5: IgG1-F722 (antibody)
heavy: B1 heavy with P240D, P310V, A329G
light: not shown
notes: Substitutions by EU numbering; copies: 2 + 2
Consider B5, for which, in the experiment with human FcRn [7], the Kd is 270 nM.

B6: IL6R-BP149/IL6R-L (antibody, human IgG1)
heavy: QVQLQESGPGLVKPSETLSLTCAVSGHSISHDHAWSWVRQPPGEGLEWIGFISYSGITNYNPSLQGRVTISRDNSKNTLYLQMNSLRAEDTAVYYCARSLARTTAMDYWGEGTLVTVSSASTKGPSVFPLAPSSKSTSGGTAALGCLVKDYFPEPVTVSWNSGALTSGVHTFPAVLQSSGLYSLSSVVTVPSSSLGTQTYICNVNHKPSNTKVDKKVEPKSCDKTHTCPPCPAPDYLGDDSVFLFPPKPKDTLMISRTPEVTCVVVDVSHEDPEVKFNWYVDGVEVHNAKTKPREEQDNSTYRVVSVLTVLHQDWLNGKEYKCKVSNAALPKPIEKTISKAKGQPREPQVYTLPPSRDELTKNQVSLTCLVKGFYPSDIAVEWESNGQPENNYKTTPPVLDSDGSFFLYSKLTVDKSRWQQGNVFSCSVMHEALHNHYTQESLSLSP
light: B2 light
notes: EU numbering
In the case of B6, the “KD(IIb)” value in the experiment with FcγRIIb [8] came to 53.1. This molecule also gave a Kd in the experiment with FcγRIIa type H [9] of 5400 nM. Besides, in the experiment with FcγRIIb [10], the “KD (IIaR)/KD (IIb)” value was 13. For the same molecule, in the experiment with FcγRIIb [11], the “KD (IIaH)/KD (IIb)” value turned out to be 89.9.

B7: IL6R-BP214/IL6R-L (antibody, human IgG1)
heavy: B6 heavy with A328D
light: B2 light
notes: Anti-human IL-6 receptor IgG1 Fc variant
For the molecule B7, the “KD(IIb)” value with FcγRIIb [12] was 26.2 fold. Also, the dissociation constant (Kd) with FcγRIa [13] came out at 59 nM; with FcγRIIb [14] it was 120 nM; in the experiment with FcγRIIa type R it was 1700 nM; with FcγRIIa type H [15], 9200 nM.

B8: IL6R-BP180/IL6R-L (antibody, human IgG1)
heavy: B6 heavy with D235E, Y236L, P273G, D298Y, A328K
light: B2 light
notes: EU numbering
With B8, the Kd with FcγRIa [16] amounted to 96 nM; in the experiment with FcγRIIa type H [9], 1600 nM. Moreover, in the experiment with FcγRIIb [10], the “KD (IIaR)/KD (IIb)” value stood at 18.6. In addition, the “KD (IIaH)/KD (IIb)” value in the experiment with FcγRIIb [11] turned out to be 290.

B9: IL6R-BP179/IL6R-L (antibody, human IgG1)
heavy: B6 heavy with D235E, Y236L, P273G, D298Y
light: B2 light
notes: EU numbering
For B9, the figures for the Kd in the experiment with FcγRIIb [17], in the experiment with FcγRIIa type H [9] and in the experiment with FcγRIIIa type V were 64 nM, 1600 nM and 55000 nM, respectively. The “KD (IIaR)/KD (IIb)” value in the experiment with FcγRIIb [10] came out at 16.7. The “KD (IIaH)/KD (IIb)” value in the experiment with FcγRIIb [11] was 191.

B10: IL6R-BP200/IL6R-L (antibody, human IgG1)
heavy: B6 heavy with P273G, D298Y, A328D, K332R
light: B2 light
notes: Anti-human IL-6 receptor human IgG1 variant; uncertain; copies: 2 + 2
For the molecule B10, the “KD(IIb)” value with human FcγRIIb [18] was 91.2. Moreover, the Kd in the experiment with human FcγRIIb [19] stood at 34 nM; in experiment [20] it was 630 nM; in the experiment with human FcγRIa, 33 nM; in experiment [21], 4200 nM.

B11: GpH7-B3/GpL16-k0 (antibody, human IgG1)
heavy: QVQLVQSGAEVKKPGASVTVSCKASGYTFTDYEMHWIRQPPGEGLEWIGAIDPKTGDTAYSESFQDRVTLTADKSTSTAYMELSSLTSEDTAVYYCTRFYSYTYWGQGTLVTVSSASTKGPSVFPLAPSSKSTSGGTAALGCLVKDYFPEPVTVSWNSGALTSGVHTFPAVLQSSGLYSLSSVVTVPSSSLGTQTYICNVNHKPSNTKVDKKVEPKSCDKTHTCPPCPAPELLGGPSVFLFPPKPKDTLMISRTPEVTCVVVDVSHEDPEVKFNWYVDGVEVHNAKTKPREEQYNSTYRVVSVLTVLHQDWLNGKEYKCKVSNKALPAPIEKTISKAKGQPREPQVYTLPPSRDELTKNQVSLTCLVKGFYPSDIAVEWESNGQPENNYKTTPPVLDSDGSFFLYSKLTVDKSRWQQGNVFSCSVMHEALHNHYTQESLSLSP
light: DIVMTQSPLSLPVTPGEPASISCQASESLVHSNRNTYLHWYLQKPGQSPQLLIYKVSNRFSGVPDRFSGSGSGTDFTLKISRVEAEDVGVYYCSQNTHVPPTFGQGTKVEIE
notes: Anti-glypican-3 antibody, human IgG1 constant region B3
On to B11, for which the “relative binding activity (bound amount / bound amount of GpH7-G1d/GpL16-k0 x 100)” value with human FcγRIIIa(F) [22] was 88.
